Results: patent US20240287172A1 (SCIRHOM, published 2024)

T1: human iRhom2, endogenously expressed (human, UniProt Q6PJF5 1-856)
T1 sequence: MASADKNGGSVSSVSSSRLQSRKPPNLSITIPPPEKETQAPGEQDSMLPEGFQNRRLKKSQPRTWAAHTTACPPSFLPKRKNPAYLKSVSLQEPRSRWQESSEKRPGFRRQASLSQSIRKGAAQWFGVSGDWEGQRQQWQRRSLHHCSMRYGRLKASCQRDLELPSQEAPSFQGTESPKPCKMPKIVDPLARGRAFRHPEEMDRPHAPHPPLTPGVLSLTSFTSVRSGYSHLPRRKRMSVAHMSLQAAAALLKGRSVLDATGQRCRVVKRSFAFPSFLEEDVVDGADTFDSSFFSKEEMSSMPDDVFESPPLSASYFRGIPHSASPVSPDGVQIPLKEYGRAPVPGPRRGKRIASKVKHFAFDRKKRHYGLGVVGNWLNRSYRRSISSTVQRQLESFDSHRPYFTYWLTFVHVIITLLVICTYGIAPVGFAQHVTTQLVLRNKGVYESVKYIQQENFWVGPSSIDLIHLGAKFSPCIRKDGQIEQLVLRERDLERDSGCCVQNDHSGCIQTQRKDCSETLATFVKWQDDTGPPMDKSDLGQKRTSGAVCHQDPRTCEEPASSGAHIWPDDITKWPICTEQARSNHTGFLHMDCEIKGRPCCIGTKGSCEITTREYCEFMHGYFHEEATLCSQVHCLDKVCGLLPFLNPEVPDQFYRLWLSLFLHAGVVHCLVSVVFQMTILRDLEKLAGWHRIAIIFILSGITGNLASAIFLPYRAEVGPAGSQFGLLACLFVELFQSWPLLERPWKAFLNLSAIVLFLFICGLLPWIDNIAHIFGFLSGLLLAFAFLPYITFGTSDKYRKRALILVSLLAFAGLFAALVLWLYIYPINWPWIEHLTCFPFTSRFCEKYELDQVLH

T2: miR2-FL-WT-FLAG (mouse, UniProt Q80WQ6 1-827)
T2 construct: on MEF-DKO cells
T2 sequence: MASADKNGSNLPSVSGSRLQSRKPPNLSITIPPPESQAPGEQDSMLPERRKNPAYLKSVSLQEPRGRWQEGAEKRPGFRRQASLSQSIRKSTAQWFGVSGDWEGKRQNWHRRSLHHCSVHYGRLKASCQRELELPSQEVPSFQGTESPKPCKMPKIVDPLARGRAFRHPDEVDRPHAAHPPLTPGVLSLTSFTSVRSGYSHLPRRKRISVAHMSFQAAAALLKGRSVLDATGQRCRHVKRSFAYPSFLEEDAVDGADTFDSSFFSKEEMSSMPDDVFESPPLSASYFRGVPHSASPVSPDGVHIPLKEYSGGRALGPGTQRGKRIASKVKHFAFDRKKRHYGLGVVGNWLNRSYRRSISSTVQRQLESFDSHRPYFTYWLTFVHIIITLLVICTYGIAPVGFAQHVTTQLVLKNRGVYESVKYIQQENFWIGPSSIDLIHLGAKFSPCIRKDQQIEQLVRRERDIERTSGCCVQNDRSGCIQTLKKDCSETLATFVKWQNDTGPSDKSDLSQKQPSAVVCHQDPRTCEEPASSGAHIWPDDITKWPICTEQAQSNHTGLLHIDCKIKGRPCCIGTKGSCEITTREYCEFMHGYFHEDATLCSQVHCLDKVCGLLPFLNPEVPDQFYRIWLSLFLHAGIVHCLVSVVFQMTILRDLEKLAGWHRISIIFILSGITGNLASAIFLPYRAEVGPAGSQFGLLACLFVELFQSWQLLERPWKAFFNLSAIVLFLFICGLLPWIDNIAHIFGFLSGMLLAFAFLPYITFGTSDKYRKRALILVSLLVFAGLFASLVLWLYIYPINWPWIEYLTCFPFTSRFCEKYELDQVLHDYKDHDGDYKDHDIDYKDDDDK


Columns and labels:
[1] = biological target: T1, human iRhom2, endogenously expressed; assay: cell-based or functional assay
[2] = biological target: T2, miR2-FL-WT-FLAG; assay: FACS, MEF-DKO-miR2-FL-WT-FLAG cells
Procedure: In brief, immortalized MEF-DKO-EV control cells, MEF-DKO-hiR2-FL-WT-FLAG cells and MEF-DKO-miR2-FL-WT-FLAG cells were harvested with 10 mM EDTA in PBS, washed and resuspended in FACS buffer (PBS, 3% FBS, 0.05% sodium azide), and seeded in Nunc U-bottom 96-well plates (Thermo Fisher Scientific, USA) at approximately 3×10⁵ cells per well. To pellet cells and remove supernatants, the plates were centrifuged at 1,500 rpm and 4° C. for 3 minutes. For primary staining, cells were resuspended in 100 μl per well of either FACS buffer alone (controls), mouse monoclonal anti-FLAG IgG (Sigma-Aldrich, USA) at 3 μg/ml FACS buffer or the antibodies of the invention also at 3 μg/ml FACS buffer and incubated on ice for 1 hour. Afterwards, plates were centrifuged at 1,500 rpm and 4° C. for 3 minutes and washed twice with 200 μl per well of FACS buffer. For secondary staining, cells were spun down and resuspended in 100 μl per well of PE-conjugated goat anti-mouse IgG F(ab′)2 detection fragment (Dianova, Germany) diluted 1:100 in FACS buffer. Protected from light, the cell suspensions were incubated on ice for 1 hour. Plates were then centrifuged at 1,500 rpm and 4° C. for 3 minutes and washed three times with 200 μl per well of FACS buffer. Finally, cells were resuspended in 150 μl per well of FACS buffer and analyzed using a BD Accuri™ C6 Plus flow cytometer (Becton Dickinson, Germany).

Binder	LPS-induced TNFα release from THP-1 cells, percent inhibition, 10 µg/ml, hybridoma-purified [1]	LPS-induced TNFα release from THP-1 cells, percent inhibition, recombinant antibody [1]	PMA-induced HB-EGF release from THP-1 cells, percent inhibition, 3 µg/ml [1]	PMA-induced HB-EGF release from U-937 cells, percent inhibition [1]	PMA-induced IL-6R release from THP-1 cells, percent inhibition, 1 µg/ml [1]	PMA-induced IL-6R release from U-937 cells, percent inhibition, 1 µg/ml [1]	PMA-induced IL-6R release from U-937 cells, percent inhibition, 3 µg/ml [1]	PMA-induced TNFα release from U-937 cells, percent inhibition, 1 µg/ml [1]	PMA-induced TNFα release from U-937 cells, percent inhibition, 3 µg/ml [1]	binding result [2]	PMA-induced TGFα release from PC3 cells, percent inhibition, 1 µg/ml [1]
antibody 34 (antibody, V domains shown, mouse IgG, kappa light chain; also called clone #34; purified antibody 34) VH: QVTLKESGPGILQPSQTLSLTCSFSGFSLSTFSLGVGWIRQSSGKGLEWLAHIWWDDEKYYNPALKSRLTISKDTSKNQVFLKIANVDAADTATYYCARAYYSKSYYALDYWGQGTSVTVSS VL: DIQMTQSPSSLSASLGERVSLTCRASQEISGYLSWLQQKPDGTIKRLIYAASTLDSGVPKRFSGSRSGSDYSLAISSLESEDFADYYCLQYANFPFTFGSGTKLEIK	27.3%	73.8%	64.2%	98.2%	71.1%	69.3%	74.6%	68.6%	79.9%	no binding (tested: 3 µg/ml)	
antibody 43 (antibody, V domains shown, mouse IgG, kappa light chain; also called clone #43; purified antibody 43) VH: QVALKESGPGILQPSQTLSLTCSFSGFSLSTFGMGVGWIRQSSGKGLEWLANIWWDDDKYYNPALKSRLTISKDASKNQAFLKIANVDTADTATYYCARIGNYGSNYWYFDVWGTGTTVTVSS VL: QIVLTQSPAIMSASPGERVTMTCSANSRISYMYWYQQKPGSSPRLLIYDTSNLASGVPVRFSGSGSGTSYSLTISRMEAEDAATYNCQQWSSYPLTFGAGTKLELK	74.8%	78.5%			72.9%	76.1%		78.3%		no binding (tested: 3 µg/ml)	12.4%
antibody 54 (antibody, V domains shown, mouse IgG, kappa light chain; also called clone #54) VH: QVTLKESGPGILQPSQTLSLTCSFSGFSLSTFGLGVGWIRQPSGKGLECLAHIWWDDDKYSNPALKSRLTISKDTSKNQVFLKIANVDSADTATYFCARILNYGSNYWYFDVWGTGTTVTVSS VL: QIVLTQSPALMSASPGEKVTMTCSASSSISYMYWYQQKPGSSPRLLIYDTSNLASGVPVRFSGSGSGTSFSLTVSRMEAEDAATYYCQQWNSYPLTFGAGTKLELK		67.9%								no binding (tested: 3 µg/ml)	
antibody 57 (antibody, V domains shown, mouse IgG, kappa light chain; also called clone #57) VH: QVTLKESGPGILQPSQTLSLTCSFSGFSLSTFGMGVGWIRQPSGKGLEWLAHIWWDDDKYYNPALKSRLTISKDTSKNQIFLKIANVDTADSATFYCARIENYGSNYWYFDVWGTGTTVTVSS VL: QIVLTQSPAIMSASPGEKVTMTCSASSSVSYMYWYQQKPGSSPRVLIYDTSNLASGVPVRFSGSGSGTSYSLTVSRMEAEDAATYYCQQWNSYPLTFGAGTKLELK		59.7%								no binding (tested: 3 µg/ml)	
antibody 44 (antibody, V domains shown, mouse IgG, kappa light chain; also called clone #44; purified antibody 44) VH: QVTLKESGPGILQPSQTLSLTCSFSGFSLSTFGMGVGWIRQPSEKGLEWLAHIWWDDDKYYNPALKSRLTISKDTSKNQIFLKITNVDTAETATYYCSRIGNYGSNYWYFDVWGTGTTVTVSS VL: QIVLTQSPAVMSASPGEKVTMTCTASSSVYYMYWYQQTPGSSPRLLIYDTSNLASGVPVRFSGSGSGTSYSLTISRMEAEDAATYYCQQWNTYPLTFGAGTKLELK	32.2%	73.2%	67.5%	100%	73%	71.8%	82%	76.5%	86.3%	no binding (tested: 3 µg/ml)	14.1%
antibody 49 (antibody, V domains shown, mouse IgG, kappa light chain; also called clone #49) VH: QVTLKESGPGILQPSQTLSLTCSFSGFSLSTFGMGVGWIRQPSGKGLEWLAHIWWDDDKYYNPALQSRLTVSKDTAKNQVFLKIANVDTADTAIYYCARVGNYGSNYWYFAVWGTGTTVTVSS VL: QIVLTQSPAIMSASPGEKVTMTCSASSSVSYMYWYQQKPGSSPRLLIYDTSNLASGVPVRFSGSGSGTSYSLTISRMEAEDAATYYCQQWNSYPLTFGAGTKLELK		59.9%								no binding (tested: 3 µg/ml)	
antibody 56 (antibody, V domains shown, mouse IgG, kappa light chain; also called clone #56) VH: QVTLKESGPGILQPSQTLSLTCSFSGFSLSTFGMGVGWIRQPSGKGLEWLTNIWWDDDKYYNSVLKSRLTISKDTSKNQVFLKIANVDTADTATYYCARIAAYGSNYWYFDVWGTGTTVTVSS VL: QIVLTQSPAIMSASPGEKVTMTCSASSSVSYMYWYQQKPGSSPRVLIYDTSNLSSGVPVRFSGSGSGTSYSLTISRMEAEDAATYYCQQWSSYPLTFGAGTKLELK		65.8%								no binding (tested: 3 µg/ml)	
antibody 46 (antibody, V domains shown, mouse IgG, kappa light chain; also called clone #46) VH: QVTLKESGPGILQPSQTLSLTCSFSGFSLSTFGMGVGWIRQPSGKGLEWLAHIWWDDDNYYNQALKSRLTISKDNTKNQVFLNIANVDTADTATYYCARIRSYDYDVRYAMDYWGQGTSVTVSS VL: DIKMTQSPSSMYASLRERVTITCKASQDINSYLSWFQQKPGKSPKTLIYRANRLVDGVPSRFSGSGSGQDYSLTISSLEYEDLGIYYCQQYYEFPLTFGAGTRLELK		36.1%								no binding (tested: 3 µg/ml)	
